“And” between values parts separate entries of the source, which are not always exact repeats. Identical values can stand only once.

From FireProtDB (doi:10.1093/protein/12.10.841) come the findings set out here.

First the molecules themselves.
B1: Lysozyme C, P61626 (parent)
chain: MKALIVLGLVLLSVTVQGKVFERCELARTLKRLGMDGYRGISLANWMCLAKWESGYNTRATNYNAGDRSTDYGIFQINSRYWCNDGKTPGAVNACHLSCSALLQDNIADAVACAKRVVRDPQGIRAWVAWRNRCQNRDVRQYVQGCGV

In one data set the parent is B1. As to conditions: Homo sapiens; pH 2.51; Thermal; DSC; glycine 0.05 M; reversible: yes; structure 1LZ1; whole UniProt chain shown.
Regarding I77S, the Tm is 50.2 °C, the “heat capacity change of unfolding” value worked out at 1.27 kcal/mol/K, the “unfolding enthalpy (calorimetric)” value came to 87 kcal/mol and the “unfolding enthalpy (van 't Hoff)” value amounted to 92.7 kcal/mol.
For I77L, the Tm was determined as 61.4 °C, the “heat capacity change of unfolding” value came to 1.12 kcal/mol/K, the “unfolding enthalpy (calorimetric)” value worked out at 109 kcal/mol and the “unfolding enthalpy (van 't Hoff)” value turned out to be 117 kcal/mol.

The same data set, now with this note: Homo sapiens; pH 2.7; 64.9 °C; Thermal; DSC; glycine 0.05 M; reversible: yes; structure 1LZ1; whole UniProt chain shown.
With I77S, the “ddG of mutation (higher = less stable)” value came out at 3.59 kcal/mol.
Same read-out and setting: in the case of I77T it was 2.22 kcal/mol; in that of I77L, 0 kcal/mol; in that of I77A, 1.72 kcal/mol.
In the case of I77V, the “ddG of mutation (higher = less stable)” value was 1.1 kcal/mol.
Turning to I77G, the “ddG of mutation (higher = less stable)” value was 3.82 kcal/mol.
The same measure, in the same setting: under I77Y stands 3.78 kcal/mol.

Staying with this data set, now noted: Homo sapiens; pH 2.7; Thermal; DSC; glycine 0.05 M; reversible: yes; structure 1LZ1; whole UniProt chain shown.
As to I77S, the “change of melting temperature, mutant - wild type (higher = more stable)” value (from here on “change of melting temperature, mutant”) is -11.8 °C; the “heat capacity change of unfolding” value was 1.2 kcal/mol/K and 1.34 kcal/mol/K; the “unfolding enthalpy (calorimetric)” value is 90.8 kcal/mol and 107 kcal/mol; the “unfolding enthalpy (van 't Hoff)” value is 96.8 kcal/mol and 114 kcal/mol.
Take I77T: the Tm was 64.9 °C.
As for I77L, the Tm came out at 64.9 °C; the “change of melting temperature, mutant” value turned out to be 0 °C; the “heat capacity change of unfolding” value worked out at 1.27 kcal/mol/K; the “unfolding enthalpy (calorimetric)” value is 114 kcal/mol. Moreover, the “unfolding enthalpy (van 't Hoff)” value amounted to 122 kcal/mol.
As for I77A, the Tm turned out to be 59.7 °C; the “change of melting temperature, mutant” value was -5.2 °C; the “heat capacity change of unfolding” value came to 1.46 kcal/mol/K; the “unfolding enthalpy (calorimetric)” value came out at 115 kcal/mol. Moreover, the “unfolding enthalpy (van 't Hoff)” value stood at 121 kcal/mol.
Take I77V: the Tm is 61.5 °C and 64.9 °C; the “change of melting temperature, mutant” value was -3.4 °C; the “heat capacity change of unfolding” value was found to be 1.2 kcal/mol/K; the “unfolding enthalpy (calorimetric)” value worked out at 110 kcal/mol. Besides, the “unfolding enthalpy (van 't Hoff)” value came to 117 kcal/mol.
In the case of I77G, the Tm was 52.2 °C; the “change of melting temperature, mutant” value is -12.7 °C; the “heat capacity change of unfolding” value came to 1.24 kcal/mol/K; the “unfolding enthalpy (calorimetric)” value came out at 106 kcal/mol. In addition, the “unfolding enthalpy (van 't Hoff)” value stood at 109 kcal/mol.
Consider I77Y, for which the “change of melting temperature, mutant” value was -13.8 °C; the “heat capacity change of unfolding” value amounted to 1.34 kcal/mol/K; the “unfolding enthalpy (calorimetric)” value came out at 97.8 kcal/mol; the “unfolding enthalpy (van 't Hoff)” value came out at 105 kcal/mol.

Staying with this data set, now noted: Homo sapiens; pH 2.84; Thermal; DSC; glycine 0.05 M; reversible: yes; structure 1LZ1; whole UniProt chain shown.
On to I77S, for which the Tm amounted to 55.3 °C, the “heat capacity change of unfolding” value came out at 1.55 kcal/mol/K, the “unfolding enthalpy (calorimetric)” value is 94.7 kcal/mol and the “unfolding enthalpy (van 't Hoff)” value was found to be 99.9 kcal/mol.

The same data set, now with this note: Homo sapiens; pH 3.04; Thermal; DSC; glycine 0.05 M; reversible: yes; structure 1LZ1; whole UniProt chain shown.
With I77S, the Tm came out at 58.2 °C, the “heat capacity change of unfolding” value was found to be 1.48 kcal/mol/K, the “unfolding enthalpy (calorimetric)” value stood at 98.2 kcal/mol and the “unfolding enthalpy (van 't Hoff)” value was determined as 104 kcal/mol.

The same data set, now with this note: Homo sapiens; pH 3.17; Thermal; DSC; glycine 0.05 M; reversible: yes; structure 1LZ1; whole UniProt chain shown.
Take I77S: the melting temperature (Tm) came to 60 °C, the “heat capacity change of unfolding” value was 1.24 kcal/mol/K, the “unfolding enthalpy (calorimetric)” value stood at 99.9 kcal/mol and the “unfolding enthalpy (van 't Hoff)” value came to 106 kcal/mol.
The corresponding values for I77L are 72.1 °C, 1.24 kcal/mol/K, 123 kcal/mol and 132 kcal/mol.

Still in this data set, the particulars now being: Homo sapiens; pH 2.4; Thermal; DSC; glycine 0.05 M; reversible: yes; structure 1LZ1; whole UniProt chain shown.
For I77T, the melting temperature (Tm) worked out at 52.9 °C, the “heat capacity change of unfolding” value came to 1.65 kcal/mol/K, the “unfolding enthalpy (calorimetric)” value stood at 90.3 kcal/mol and the “unfolding enthalpy (van 't Hoff)” value was found to be 98.7 kcal/mol.

Staying with this data set, now noted: Homo sapiens; pH 2.62; Thermal; DSC; glycine 0.05 M; reversible: yes; structure 1LZ1; whole UniProt chain shown.
Take I77T: the Tm was found to be 56.9 °C, the “heat capacity change of unfolding” value was determined as 1.67 kcal/mol/K, the “unfolding enthalpy (calorimetric)” value stood at 104 kcal/mol and the “unfolding enthalpy (van 't Hoff)” value amounted to 105 kcal/mol.

The data set is the same for the next values; noted with them: Homo sapiens; pH 2.8; Thermal; DSC; glycine 0.05 M; reversible: yes; structure 1LZ1; whole UniProt chain shown.
With I77T, the Tm turned out to be 59.5 °C, the “heat capacity change of unfolding” value is 1.17 kcal/mol/K, the “unfolding enthalpy (calorimetric)” value came to 106 kcal/mol and the “unfolding enthalpy (van 't Hoff)” value came to 110 kcal/mol.

Still in this data set, the particulars now being: Homo sapiens; pH 2.99; Thermal; DSC; glycine 0.05 M; reversible: yes; structure 1LZ1; whole UniProt chain shown.
Turning to I77T, the Tm was 62.9 °C, the “heat capacity change of unfolding” value was determined as 1.39 kcal/mol/K, the “unfolding enthalpy (calorimetric)” value came to 107 kcal/mol and the “unfolding enthalpy (van 't Hoff)” value amounted to 107 kcal/mol.

The data set is the same for the next values; noted with them: Homo sapiens; pH 3.15; Thermal; DSC; glycine 0.05 M; reversible: yes; structure 1LZ1; whole UniProt chain shown.
For the variant I77T, the Tm is 64.9 °C, the “heat capacity change of unfolding” value turned out to be 1.2 kcal/mol/K, the “unfolding enthalpy (calorimetric)” value was 111 kcal/mol and the “unfolding enthalpy (van 't Hoff)” value amounted to 119 kcal/mol.

The data set is the same for the next values; noted with them: Homo sapiens; pH 2.66; Thermal; DSC; glycine 0.05 M; reversible: yes; structure 1LZ1; whole UniProt chain shown.
Regarding I77L, the midpoint of thermal melting (Tm) was 64.5 °C, the “heat capacity change of unfolding” value was 1.17 kcal/mol/K, the “unfolding enthalpy (calorimetric)” value came to 113 kcal/mol and the “unfolding enthalpy (van 't Hoff)” value was found to be 122 kcal/mol.

Staying with this data set, now noted: Homo sapiens; pH 2.83; Thermal; DSC; glycine 0.05 M; reversible: yes; structure 1LZ1; whole UniProt chain shown.
With I77L, the Tm is 67 °C, the “heat capacity change of unfolding” value was 1.17 kcal/mol/K, the “unfolding enthalpy (calorimetric)” value was determined as 116 kcal/mol and the “unfolding enthalpy (van 't Hoff)” value is 126 kcal/mol.

The same data set, now with this note: Homo sapiens; pH 2.96; Thermal; DSC; glycine 0.05 M; reversible: yes; structure 1LZ1; whole UniProt chain shown.
On to I77L, for which the Tm worked out at 69.8 °C, the “heat capacity change of unfolding” value came out at 1.31 kcal/mol/K, the “unfolding enthalpy (calorimetric)” value is 119 kcal/mol and the “unfolding enthalpy (van 't Hoff)” value worked out at 128 kcal/mol.

Staying with this data set, now noted: Homo sapiens; pH 2.71; Thermal; DSC; glycine 0.05 M; reversible: yes; structure 1LZ1; whole UniProt chain shown.
Turning to I77Y, the Tm stood at 51.4 °C, the “heat capacity change of unfolding” value is 1.55 kcal/mol/K, the “unfolding enthalpy (calorimetric)” value is 79.3 kcal/mol and the “unfolding enthalpy (van 't Hoff)” value amounted to 84.4 kcal/mol.

The data set is the same for the next values; noted with them: Homo sapiens; pH 3.18; Thermal; DSC; glycine 0.05 M; reversible: yes; structure 1LZ1; whole UniProt chain shown.
With I77Y, the Tm was 59.5 °C, the “heat capacity change of unfolding” value was found to be 1.27 kcal/mol/K, the “unfolding enthalpy (calorimetric)” value turned out to be 90.6 kcal/mol and the “unfolding enthalpy (van 't Hoff)” value turned out to be 97 kcal/mol.

By Tm is commonly meant the temperature at the midpoint of the melting transition.
